The results in this text go back to patent publication US20110135573A1 (DYAX, published 2011).

The target of assay [1] is T1, Human MMP-9 catalytic domain (BIOMOL, SE-244) (human, UniProt P14780 107-457, limits assumed).
T1 construct: domain: catalytic domain; also called Cat-huMMP-9; cat-huMMP-9
As to the kind of experiment: Ki,app, enzyme inhibition assay (fluorogenic peptide substrate), IgG; told as Ki of 0.92±0.04 nM in Example 2. As for the experimental part: (§1) Materials: [0495] Substrate: Mca-KPLGL-Dap(Dnp)-AR-NH₂ (M-2350) from BACHEM (521575). A 10 mM stock solution was prepared in DMSO. [0496] Enzymes: [0497] Human MMP-9 catalytic domain (BIOMOL, SE-244). Enzyme concentration was measured by titration with TIMP-1 (2522-104) [0498] Mouse MMP-9 (R&D, 909-MM), APMA-activated. [0499] M0237-D02 hIgG1: 2517-014. Dialysed against TCN. [0500] TCNB: 50 mM Tris/HCl, 10 mM CaCl₂, 150 mM NaC, […] Brij 35, pH 7.5. [0501] -96-well black plates from Perkin Elmer (6005270) [0502] Spectramax M2e to measure fluorescence emission of the substrate upon hydrolysis (temperature control set at 30° C.; λexc=328 nm and λₑₘ=393 nm)
(§2) The enzyme (final concentration=0.23 and 0.17 nM for the human and mouse MMP-9, respectively) was preincubated with various concentrations (0-50 nM) of M0237-D02 for 1 h at 30° C. The substrate was then added to a final concentration ranging from 5 to 40 μM and initial rates were recorded.

The target in assay [2] is T2, h-MMP-9/h-TIMP-1 complex (human, UniProt P14780 107-457; P01033 24-207, limits assumed).
T2 construct: Preformed non-covalent complex flowed over the antibody surfaces; also called huTIMP-1/cat-huMMP-9; h-TIMP-1/h-MMP-9 complex
T2 sequence (P14780 107-457 limits assumed, chain 1 of 2): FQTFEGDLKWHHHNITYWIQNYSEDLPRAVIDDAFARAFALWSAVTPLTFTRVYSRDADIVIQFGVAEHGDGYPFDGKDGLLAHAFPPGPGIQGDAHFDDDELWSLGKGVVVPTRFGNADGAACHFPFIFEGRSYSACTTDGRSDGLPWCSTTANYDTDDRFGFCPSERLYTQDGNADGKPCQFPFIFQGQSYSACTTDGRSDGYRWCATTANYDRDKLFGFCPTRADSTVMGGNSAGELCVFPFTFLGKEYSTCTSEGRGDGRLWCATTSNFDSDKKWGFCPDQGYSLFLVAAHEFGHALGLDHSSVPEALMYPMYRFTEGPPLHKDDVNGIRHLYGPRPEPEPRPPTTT
T2 sequence (P01033 24-207 limits assumed, chain 2 of 2): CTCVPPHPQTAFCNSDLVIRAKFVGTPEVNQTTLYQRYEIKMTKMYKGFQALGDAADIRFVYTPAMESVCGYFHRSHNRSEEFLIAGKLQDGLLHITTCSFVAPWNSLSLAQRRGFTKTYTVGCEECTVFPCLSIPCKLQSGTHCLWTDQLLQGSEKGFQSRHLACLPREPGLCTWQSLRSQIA
As to the kind of experiment: SPR (Biacore 3000), antibody captured via anti-Fc. As for the experimental part:
Experiments were performed at 25° C. with the help of a Biacore 3000 instrument. The MMP-9 binding protein (M0166F10) and the M0237-D02 antibody were coated to a CM5 chip either via standard amine coupling or using an anti-Fc antibody surface. Then either the active, human MMP-9 catalytic domain (BIOMOL, SE-244), the human pro-MMP-9 (R&D, 911-MP), the human TIMP-1 (R&D, 970-TM) or a h-MMP-9/h-TIMP-1 complex were flowed over the antibody surfaces, and binding was recorded.
It was shown that the human MMP-9 catalytic domain binds to M0166-F10, whether this antibody is directly captured via amine coupling or captured with an anti-Fc antibody surface.
(In general: SPR reads the build-up and loss of mass on a sensor chip optically.)

For assay [3], the target named is T3, Mouse MMP-9 (R&D, 909-MM), APMA-activated (mouse, UniProt P41245 108-730, limits assumed).
T3 construct: also called mMMP-9; mouse MMP-9 (R&D Systems #909-MM-010)
T3 sequence (P41245 108-730 limits assumed): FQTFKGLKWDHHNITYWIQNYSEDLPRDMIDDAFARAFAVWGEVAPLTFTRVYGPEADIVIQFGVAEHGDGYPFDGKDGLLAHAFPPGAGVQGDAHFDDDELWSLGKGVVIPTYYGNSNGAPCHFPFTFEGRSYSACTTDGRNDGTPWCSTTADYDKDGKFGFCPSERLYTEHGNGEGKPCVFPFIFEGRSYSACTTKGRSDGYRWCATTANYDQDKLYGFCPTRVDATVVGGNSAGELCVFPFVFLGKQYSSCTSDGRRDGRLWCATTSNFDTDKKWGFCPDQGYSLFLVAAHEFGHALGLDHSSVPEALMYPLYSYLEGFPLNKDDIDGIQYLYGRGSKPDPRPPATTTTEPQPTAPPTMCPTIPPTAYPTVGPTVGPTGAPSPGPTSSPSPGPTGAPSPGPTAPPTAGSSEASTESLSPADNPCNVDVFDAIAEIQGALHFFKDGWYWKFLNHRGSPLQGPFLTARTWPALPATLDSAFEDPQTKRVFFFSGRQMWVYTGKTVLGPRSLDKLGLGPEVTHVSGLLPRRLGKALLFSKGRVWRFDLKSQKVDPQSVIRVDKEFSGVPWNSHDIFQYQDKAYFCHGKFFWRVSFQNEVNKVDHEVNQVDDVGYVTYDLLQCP
As to the kind of experiment: Ki,app, enzyme inhibition assay (fluorogenic peptide substrate), IgG; told as Ki of 1.3±0.1 nM in Example 2. The protocol: as §1, §2

The target of assay [4] is T4, human MMP-2 (Biomol #SE-237) (human, UniProt P08253 110-452, limits assumed).
T4 construct: also called hMMP-2
T4 sequence (P08253 110-452 limits assumed): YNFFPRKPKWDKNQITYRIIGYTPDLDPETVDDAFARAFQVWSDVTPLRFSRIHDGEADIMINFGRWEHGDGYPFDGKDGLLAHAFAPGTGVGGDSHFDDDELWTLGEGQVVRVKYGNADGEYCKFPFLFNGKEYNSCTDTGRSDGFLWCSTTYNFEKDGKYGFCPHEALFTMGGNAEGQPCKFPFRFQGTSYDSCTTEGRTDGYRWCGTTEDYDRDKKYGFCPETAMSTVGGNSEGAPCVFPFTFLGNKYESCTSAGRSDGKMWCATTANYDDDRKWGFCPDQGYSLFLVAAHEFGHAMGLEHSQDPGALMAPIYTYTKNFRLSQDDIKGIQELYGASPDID
As to the kind of experiment: Ki,app, enzyme inhibition assay (fluorogenic peptide substrate), IgG.

For assay [5], the target named is T1, Human MMP-9 catalytic domain (BIOMOL, …). As to the kind of experiment: plot of kobs against antibody concentration, inhibition progress curves.

T1 sequence (P14780 107-457 limits assumed): as the sequence (P14780 107-457 limits assumed, chain 1 of 2) above

B1: 539A-M0237-D02 hIgG1 (antibody, V domains shown)
VH: EVQLLESGGGLVQPGGSLRLSCAASGFTFSQYPMWWVRQAPGKGLEWVSYIVPSGGRTYYADSVKGRFTISRDNSKNTLYLQMNSLRAEDTAVYYCAKDRAYGDYVGWNGFDYWGQGTLVTVSS
VL: DIQMTQSPATLSLSPGERATLSCRASQSISSFLAWYQQKPGQAPRLLIYDASYRATGIPARFSGSGSGTDFTLTISSLEPEDYAVYYCQQRGNWPITFGQGTRLEIK
notes: Tested as human IgG1 (parental); also called M237-D02; DL8
For orientation: koff means the rate constant with which the complex falls apart. Read a low koff as a long-lived complex. Broadly, the kon is the second-order rate constant of association. Turning to B1, the values for the Ki in assay [1], in assay [3] and in assay [4] were 0.92 nM, 1.3 nM and 17 nM, respectively. For the same molecule, the binding result in assay [2] is recorded as “no binding”. In addition, in assay [5], the koff was ~0.0004 s⁻¹. The kon in assay [5] was ~70000 M⁻¹ s⁻¹.
